Laboratory results published in paper PMC6520365, “Structural and functional characterization of the PDZ domain of the human phosphatase PTPN3 and its interaction with the human papillomavirus E6 oncoprotein” (Scientific Reports, 2019).
Marks after values point to notes of the source that are not given here.

Experiments:
Format in all cases: physicochemical, human
[1] = AUC sedimentation velocity of free PTPN3 PDZ constructs; settings: 20 °C
[2] = Aggregation/stability followed by NMR HSQC spectra at 20 °C
Experimental: To evaluate the stability of PTPN3-PDZ, we performed differential scanning calorimetry (DSC) (Fig. 2C). […] As a comparison, we performed DSC on PTPN4-PDZ. We obtained an endothermic peak with a Tm of 47 °C (Fig. 2C). […] This thermal instability of the PTPN3-PDZ construct could be responsible for its aggregation previously detected by NMR.
The instability and tendency to oligomerize of PTPN3-PDZ made this construct unsuitable for crystallogenesis. To gain in stability and protein expression yield, we extended the N-terminal extremity of PTPN3-PDZ by 15-residues with its wild-type upstream sequence (PTPN3-PDZNext in Fig. 1). These extensions have been reported to provide structural stability to some PDZ containing proteins[13],[14]. The PTPN3-PDZ production yield was increased two-fold after extension from 0.9 mg to 1.8 mg of purified protein per liter of culture. The stability of PTPN3-PDZNext was then evaluated by NMR HSQC spectra recorded during a week at 20 °C. […] The additional peaks of the N-terminal extension residues fall in the spectral region characteristic of unfolded protein and no chemical shift differences between PTPN3-PDZNext and the shorter form are detected.
A series of ^1H, ^15N HSQC spectra was recorded over a week at 20 °C for a sample of PTPN3-PDZNext at 170 μM to follow the stability of the construct.

[3] = AUC sedimentation velocity of free PTPN3 PDZ constructs; settings: 20 °C; remark: listed apart in the source
Experimental: To estimate the oligomeric state of the PTPN3-PDZ construct, analytical ultracentrifugation (AUC) experiments were performed (Table 2). Three different concentrations of the protein were tested, 10, 25 and 70 μM. Only one single peak was detected at 10 μM with a sedimentation coefficient of 1.5S in agreement with a monomeric form of 10.5 kDa. At 25 μM, an additional peak was detected with a sedimentation coefficient of 2.6S corresponding to a dimeric form.
Sedimentation velocity experiments were carried out at 20 °C using a Beckman Coulter XL-I centrifuge equipped with a AN60-Ti rotor. Various protein and protein–peptide complex concentrations (protein concentrations ranging from 12.5 to 70 μM) samples were centrifuged for 17 h at 42000 rpm. Data were analyzed with SEDFIT 15.1 using a continuous size distribution c(S) model. The partial specific volume, the viscosity and the density of the samples were calculated with […]. The processed data were used to obtain values of sedimentation coefficients at null concentration in our experimental conditions (S0) and to get the standard sedimentation coefficients in water at 20 °C (S0,w,20) (Table 2).

[4] = DSC of free PDZ domain (thermal stability); settings: 21 μM free PTPN3-PDZ, 18 μM PTPN4-PDZ, scan rate 200 °C/h, buffer A pH 7.5, repeated three times
Experimental: DSC experiments were carried out on a Microcal VP-capillary DSC (Malvern). 18, 21, 94 and 28 μM of PTPN4-PDZ, free PTPN3-PDZ, free PTPN3-PDZNext and PTPN3-PDZ complexed with peptides respectively were scanned from 10 °C to 90–100 °C with a scan rate of 200 °C/h. Large excess of peptides were used: about 600 μM for p38γ PBM, about 300 μM for HBVc PBM and HPV16E6 PBM and about 200 μM for HPV18E6 PBM. The buffer A was repeatedly scanned to ensure a stable buffer baseline. The buffer baseline was subtracted from the protein thermogram. Subsequent to normalization of the data by the protein concentration, a non-linear curve fitting algorithm was employed to obtain the Tm of the transition. All experiments were repeated three times.

[5] = PTPN3-PDZ 25 μM, two peaks are present

| Molecule | MW estimated ([1]; PTPN3-PDZNext 17.5 μM) [kDa] | Sed coef (S0,w,20) ([1]; PTPN3-PDZNext 17.5 μM) [S] | MW estimated ([1]; PTPN3-PDZNext 35 μM) [kDa] | Sed coef (S0,w,20) ([1]; PTPN3-PDZNext 35 μM) [S] | MW estimated ([1]; PTPN3-PDZNext 70 μM) [kDa] | Sed coef (S0,w,20) ([1]; PTPN3-PDZNext 70 μM) [S] | oligomeric state of free PTPN3-PDZNext ([1]; PTPN3-PDZNext between 17.5 μM and 70 μM) | aggregation by HSQC peak intensity ([2]; HSQC recorded during a week at 20 °C, PTPN3-PDZNext 170 μM) | MW estimated ([3]; PTPN3-PDZ 10 μM, 42000 rpm) [kDa] | Sed coef (S0,w,20) ([3]; PTPN3-PDZ 10 μM, standard coefficient in water at 20 °C) [S] | MW estimated [3, 5] | Sed coef (S0,w,20) [3, 5] | oligomeric state of free PTPN3-PDZ ([3]; PTPN3-PDZ 70 μM) | Tm (thermal transition midpoint), free PDZ domain [4] [°C] | aggregation by HSQC peak intensity ([2]; after 10 h at 20 °C, data not shown) |
| --- | --- | --- | --- | --- | --- | --- | --- | --- | --- | --- | --- | --- | --- | --- | --- |
| PTPN3-PDZNext: PTPN3-PDZ extended at the N-terminal extremity by 15 residues with its wild-type upstream sequence (protein, left off: GST, N-terminal, cleaved) STEDASQYYCDKNDNGDSYLVLIRITPDEDGKFGFNLKGGVDQKMPLVVSRINPESPADTCIPKLNEGDQIVLINGRDISEHTHDQVVMFIKASRESHSRELALVIRRRAVRSFADFKSEDELNQLFPEAIFPMCPEGGDTLEGSMAQLKKGLESGTVLIQFEQLYRKKPGLAITFAKLPQNLDKNRYKDVLPYDTTRVLLQGNEDYINASYVNMEIPAANLVNKYIATQGPLPHTCAQFWQVVWDQKLSLIVMLTTLTERGRTKCHQYWPDPPDVMNHGGFHIQCQSEDCTIAYVSREMLVTNTQTGEEHTVTHLQYVAWPDHGVPDDSSDFLEFVNYVRSLRVDSEPVLVHCSAGIGRTGVLVTMETAMCLTERNLPIYPLDIVRKMRDQRAMMVQTSSQYKFVCEAILRVYEEGLVQMLDPS | 12.7 | 1.6 | 12.5 | 1.7 | 15 | 1.6 | devoid of higher oligomeric species | without any signs of aggregation |  |  |  |  |  |  |  |
| PTPN3-PDZ: recombinant PDZ domain of human PTPN3 expressed in E. coli (protein, left off: GST, N-terminal, cleaved, recombinant PDZ domain of human PTPN3 expressed in E. coli) GDSYLVLIRITPDEDGKFGFNLKGGVDQKMPLVVSRINPESPADTCIPKLNEGDQIVLINGRDISEHTHDQVVMFIKASRESHSRELALVIRRRAVRSFADFKSEDELNQLFPEAIFPMCPEGGDTLEGSMAQLKKGLESGTVLIQFEQLYRKKPGLAITFAKLPQNLDKNRYKDVLPYDTTRVLLQGNEDYINASYVNMEIPAANLVNKYIATQGPLPHTCAQFWQVVWDQKLSLIVMLTTLTERGRTKCHQYWPDPPDVMNHGGFHIQCQSEDCTIAYVSREMLVTNTQTGEEHTVTHLQYVAWPDHGVPDDSSDFLEFVNYVRSLRVDSEPVLVHCSAGIGRTGVLVTMETAMCLTERNLPIYPLDIVRKMRDQRAMMVQTSSQYKFVCEAILRVYEEGLVQMLDPS |  |  |  |  |  |  |  |  | 12.4 | 1.5 | 11.3–25.9^a kDa | 1.5–2.6^a S | higher oligomeric species could be detected | 41 | significant loss of peak intensities |
